Laboratory results: the supplement of paper PMC7877785
± gives the uncertainty stated by the source.

Assay: self-splicing fitness, log relative to wild type (ln ratio); higher = more splicing; Tetrahymena group I intron in knt gene, E. coli kanamycin selection, DiMSum; sequences stand for … in CUCUCU…GGAGGGAAAAGUUAUCAGGCAUGCACCUGGUAGCUAGUCUUUAAACCAAUAGAUUGCAUCGGUUUAAAAGGCAAGACCGUCAAAUUGCGGGAAAGGGGUCAACAGCCGUUCAGUACCAAGUCUCAGGGGAAACUUUGAGAUGGCCUUGCAAAGGGUAUGGUAAUAAGCUGACGGACAUGGUCCUAACCACGCAGCCAAGUCCUAAGUCAACAGAUCUUCUGUUGAUAUGGAUGCAGUUCACAGACUAAAUGUCGGUCGGGGAAGAUGUAUUCUUCUCAUAAGAUAUAGUCGGACCUCUCCUUAAUGGGAGCUAGCGGAUGAAGUGAUGCAACACUGGAGCCGCUGGGAACUAAUUUGUAUGCGAAAGUAUAUUGAUUAGUUUUGGAGUACUCGUGGUCG
Outline: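 Pooled colonies went to amplicon sequencing on an Illumina HiSeq 2500 after six replicate transformations. The plates were LB agar with 100 μg/mL carbenicillin, 50 μM IPTG and 0.2% rhamnose, with or without 25 μg/mL kanamycin, incubated overnight at 37°C or 30°C. The E. coli BL21(DE3) library had all eight P1ex-region intron nucleotides randomised, the intron placed in the knt kanamycin-resistance gene on pET-22b(+). DiMSum fitness is the error-weighted combination of replicate fold changes, kanamycin against none, normalised to wild type.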

Sequence | self-splicing fitness (ln) (30 °C) | self-splicing fitness (ln) (37 °C)
CGUCAGCAAUAUUACGACUU | -0.191 ± 0.069 | 0.132 ± 0.08
AUAUAGCAAUAUUACGGAUU | -1.46 ± 0.14 | -1.26 ± 0.22
GGCGAGCAAUAUUACGUCUA | -1.86 ± 0.19 | -0.451 ± 0.15
UGGUAGCAAUAUUACGCAAA | -2.06 ± 0.29 | -1.59 ± 0.17
GAGCAGCAAUAUUACGCCGA | -1.55 ± 0.17 | -0.726 ± 0.18
AACUAGCAAUAUUACGUCUC | -3.37 ± 0.16 | -2.54 ± 0.15
CGAAAGCAAUAUUACGGACC | -0.938 ± 0.11 | 0.398 ± 0.13
CCACAGCAAUAUUACGUACU | -2.01 ± 0.12 | -1.93 ± 0.19
GGGUAGCAAUAUUACGCCCG | -1.88 ± 0.25 | -1.32 ± 0.17
GGCCAGCAAUAUUACGCCGA | -1.54 ± 0.16 | -1.18 ± 0.14
UAACAGCAAUAUUACGCAUU | -2.59 ± 0.12 | -0.539 ± 0.096
CUGAAGCAAUAUUACGCUGA | -3.66 ± 0.24 | -3.28 ± 0.43
UAUAAGCAAUAUUACGUGAG | -1.56 ± 0.1 | -1.12 ± 0.14
AUUAAGCAAUAUUACGCUAA | -1.89 ± 0.17 | -0.434 ± 0.13
UGCAAGCAAUAUUACGCGGA | -2.23 ± 0.12 | -0.795 ± 0.12
GAGUAGCAAUAUUACGGGGA | -2.51 ± 0.14 | -2.45 ± 0.2
ACUAAGCAAUAUUACGACGG | -0.271 ± 0.074 | 0.203 ± 0.094
CCAGAGCAAUAUUACGUAUU | -3.91 ± 0.18 | -2.41 ± 0.17
AACAAGCAAUAUUACGCAGA | -2.2 ± 0.11 | -0.924 ± 0.095
AGUGAGCAAUAUUACGUAUG | – | -2.56 ± 0.32
ACUCAGCAAUAUUACGUGGA | -1.96 ± 0.078 | -1.54 ± 0.082
GCGAAGCAAUAUUACGCGAA | -2.2 ± 0.13 | -1.68 ± 0.14
AUAUAGCAAUAUUACGCAAC | -3.95 ± 0.32 | -1.96 ± 0.27
ACUCAGCAAUAUUACGCAUU | -0.878 ± 0.049 | -0.294 ± 0.06
GCCGAGCAAUAUUACGACUG | -2.66 ± 0.23 | -3.53 ± 0.42
CCGAAGCAAUAUUACGACUC | -3.36 ± 0.32 | –

Sequence | self-splicing fitness (ln) (30 °C) | self-splicing fitness (ln) (37 °C)
UAAUAGCAAUAUUACGAUCC | -3.33 ± 0.44 | –
UCCAAGCAAUAUUACGGGGG | -3.91 ± 0.2 | -3.41 ± 0.24
GGGGAGCAAUAUUACGUAAA | -3.12 ± 0.36 | -1.18 ± 0.3
UCAUAGCAAUAUUACGAUUU | -3.45 ± 0.22 | -2.24 ± 0.22
AGUGAGCAAUAUUACGAGAU | -3.9 ± 0.23 | -1.49 ± 0.19
AUAUAGCAAUAUUACGUAUA | -2.12 ± 0.23 | -0.454 ± 0.17
GCUCAGCAAUAUUACGUGAA | -0.113 ± 0.063 | 0.231 ± 0.077
GAACAGCAAUAUUACGCGUC | -2.99 ± 0.12 | -3.19 ± 0.16
UUAUAGCAAUAUUACGGCAA | -0.0783 ± 0.11 | -0.348 ± 0.1
CCCGAGCAAUAUUACGUACG | -3.24 ± 0.18 | -2.83 ± 0.24
UCUGAGCAAUAUUACGAGUU | -2.13 ± 0.25 | –
AGACAGCAAUAUUACGCAAG | -2.89 ± 0.11 | -0.553 ± 0.1
AAUAAGCAAUAUUACGGCAC | -1.44 ± 0.11 | -0.634 ± 0.14
UAAAAGCAAUAUUACGGACC | -1.44 ± 0.2 | -1.46 ± 0.29
GUAGAGCAAUAUUACGUGAC | -2.42 ± 0.16 | -1.31 ± 0.19
UGGCAGCAAUAUUACGCAGG | -2.79 ± 0.16 | -1.23 ± 0.12
GGUGAGCAAUAUUACGUGCC | -3.67 ± 0.33 | -2.67 ± 0.38
AGCGAGCAAUAUUACGGACC | -0.957 ± 0.13 | -1.08 ± 0.18
UUCUAGCAAUAUUACGUACG | -1.82 ± 0.14 | -0.281 ± 0.14
UAUUAGCAAUAUUACGGUCU | -2.66 ± 0.23 | -1.57 ± 0.32
CAUUAGCAAUAUUACGGCCG | 0.721 ± 0.13 | 0.409 ± 0.14
GAAGAGCAAUAUUACGGCCU | -1.15 ± 0.14 | -0.824 ± 0.19
GUCAAGCAAUAUUACGUCAA | -2.48 ± 0.1 | -1.87 ± 0.11
UUGCAGCAAUAUUACGCCGU | -3.46 ± 0.36 | -1.41 ± 0.3
AGUGAGCAAUAUUACGGCGC | -0.869 ± 0.35 | -0.599 ± 0.2
AGGUAGCAAUAUUACGGGAC | -3.462 ± 0.028 | -2.15 ± 0.039

Sequence | self-splicing fitness (ln) (30 °C) | self-splicing fitness (ln) (37 °C)
GGUGAGCAAUAUUACGGGGU | -3.31 ± 0.17 | -2.94 ± 0.26
UGCAAGCAAUAUUACGGGGA | -3.21 ± 0.33 | -1.32 ± 0.15
GGCCAGCAAUAUUACGUGCC | -3 ± 0.15 | -0.478 ± 0.24
UAAAAGCAAUAUUACGUAAU | -2.6 ± 0.12 | -1.08 ± 0.13
ACGGAGCAAUAUUACGCUAA | – | 0.642 ± 0.24
UGCUAGCAAUAUUACGAACA | -0.29 ± 0.12 | 0.199 ± 0.13
UAAUAGCAAUAUUACGAUCU | -1.4 ± 0.098 | -0.601 ± 0.12
GGUGAGCAAUAUUACGGUCC | -1.66 ± 0.13 | -0.523 ± 0.15
GCCUAGCAAUAUUACGCUAU | -0.383 ± 0.11 | -0.105 ± 0.17
CUCCAGCAAUAUUACGUAAC | -3.3 ± 0.13 | -3.08 ± 0.2
CCUAAGCAAUAUUACGCCCG | -2.22 ± 0.22 | -0.795 ± 0.26
GGUAAGCAAUAUUACGCCUU | -1.49 ± 0.15 | -0.81 ± 0.15
UGCAAGCAAUAUUACGGAAA | -1.82 ± 0.17 | -2.45 ± 0.22
AGGUAGCAAUAUUACGGCGA | -0.281 ± 0.015 | -0.0476 ± 0.033
GUAAAGCAAUAUUACGGAAG | -2.86 ± 0.18 | -1.36 ± 0.15
CAUUAGCAAUAUUACGUAAA | -2.93 ± 0.15 | -1.34 ± 0.15
UCCAAGCAAUAUUACGGGCG | -1.05 ± 0.073 | -0.839 ± 0.085
UGGAAGCAAUAUUACGUCAC | – | -1.54 ± 0.24
GAACAGCAAUAUUACGUUGU | -3.8 ± 0.21 | -2.24 ± 0.12
AGACAGCAAUAUUACGUCCC | -2.45 ± 0.18 | -0.529 ± 0.17
GAACAGCAAUAUUACGUCCU | -1.24 ± 0.09 | -0.941 ± 0.11
GUAUAGCAAUAUUACGGACU | -1.83 ± 0.16 | -1.27 ± 0.3
ACUAAGCAAUAUUACGCAGG | -2.02 ± 0.088 | -0.927 ± 0.092
ACAAAGCAAUAUUACGGGCA | -1.56 ± 0.069 | -1.28 ± 0.056
AGAUAGCAAUAUUACGUCGA | -0.721 ± 0.13 | 0.375 ± 0.13
GUGCAGCAAUAUUACGCAAG | -1.5 ± 0.1 | -0.974 ± 0.12
